In assay [1] the target is T1, soluble human CD3ε chain (human, UniProt P07766 23-126, limits assumed).
T1 construct: the text says soluble human CD3ε chain; also called human CD3 epsilon chain
The assay is described as follows: SPR (Biacore).
T1 sequence (P07766 23-126 limits assumed): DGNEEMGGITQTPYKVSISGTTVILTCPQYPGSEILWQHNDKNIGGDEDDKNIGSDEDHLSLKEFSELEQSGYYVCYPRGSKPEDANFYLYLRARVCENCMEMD

In assay [2] the target is T2, soluble human CD3ε chain (human, UniProt P07766 23-126, limits assumed).
T2 construct: also called human CD3 epsilon chain
The assay is described as follows: SPR (Biacore), soluble human CD3ε chain. On the technique in general: In SPR one partner is held on a chip, and binding of the other changes the refractive index at the surface.
T2 sequence (P07766 23-126 limits assumed): as above

Positions count from the first letter of the chain named.

B1: TR01H084-E22Hh/none-Hi-Kn010G3/L0262-k0 (antibody, human IgG1, kappa, L234A L235A, N297A)
heavy: QVQLVESGGGVVQPGGSLRLSCAASGFTFSNAWMHWVRQAPGKGLEWVAQIKDKSQNYATYYAESVKGRFTISRADSKNSIYLQMNSLKTEDTAVYYCRYVHYAAGYGVDIWGQGTTVTVSSASTKGPSVFPLAPSSKSTSGGTAALGCLVKDYFPEPVTVSWNSGALTSGVHTFPAVLQSSGLYSLSSVVTVPSSSLGTQTYICNVNHKPSNTKVDKKVEPKSCDKTHTCPPCPAPEAAGGPSVFLFPPKPKDTLMISRTPEVTCVVVDVSHEDPEVKFNWYVDGVEVHNAKTKPREEQYASTYRVVSVLTVLHQDWLNGKEYKCKVSNKALPAPIEKTISKAKGQPREPQVYTLPPSRCELTKNQVSLSCAVKGFYPSDIAVEWESNGQPENNYKTTPPVLDSDGSFFLVSKLTVDKSRWQQGNVFSCSVMHEALHNHYTQKSLSLSPDYKDDDDK
chain: EPKSSDKTHTCPPCPAPELLGGPSVFLFPPKPKDTLMISRTPEVTCVVVDVSHEDPEVKFNWYVDGVEVHNAKTKPREEQYNSTYRVVSVLTVLHQDWLNGKEYKCKVSNKALPAPIEKTISKAKGQPREPQVCTLPPSRDELTKNQVSLWCLVKGFYPSDIAVEWESNGQPENNYKTTPPVLDSDGSFFLYSKLTVDKSRWQQGNVFSCSVMHEALHNRYTQKSLSLSP
light: DIVMTQSPLSLPVTPGEPASISCRSSQPPVHSNRNTYLHWYQQKPGQAPRLLIYKVSNRFSGVPDRFSGSGSGTDFTLKISRVEAEDVGVYYCAQGTQVPYTFGQGTKLEIKRTVAAPSVFIFPPSDEQLKSGTASVVCLLNNFYPREAKVQWKVDNALQSGNSQESVTEQDSKDSTYSLSSTLTLSKADYEKHKVYACEVTHQGLSSPVTKSFNRGEC
notes: single-arm
As for B1, the dissociation constant (Kd) (in general, the constant that tells how readily two partners part at equilibrium) with soluble human CD3ε chain [1] stood at 8.51 nM.

B2: TR01H040-E22Hh/none-Hi-Kn010G3/L0000vk1-k0 (antibody, human IgG1, kappa, L234A L235A, N297A)
heavy: B1 heavy with V11L, G16R, A104S, G106S, I111A
chain: B1 chain
light: DIQMTQSPSSLSASVGDRVTITCRSSQSLVHSNRNTYLHWYQQKPGKAPKLLIYKVSNRFSGVPSRFSGSGSGTDFTFTISSLQPEDIATYYCGQGTQVPYTFGQGTKVEIKRTVAAPSVFIFPPSDEQLKSGTASVVCLLNNFYPREAKVQWKVDNALQSGNSQESVTEQDSKDSTYSLSSTLTLSKADYEKHKVYACEVTHQGLSSPVTKSFNRGEC
notes: single-arm
B2 came in with a Kd with soluble human CD3ε chain [1] of 46.9 nM.

B3: TR01H080-E22Hh/none-Hi-Kn010G3/L0000-k0 (antibody, human IgG1, kappa, L234A L235A, N297A)
heavy: QVQLVESGGGLVQPGRSLRLSCAASGFTFSNAWMHWVRQAPGKGLEWVAQIKDKSNNYATYYAESVKGRFTISRADSKNSIYLQMNSLKTEDTAVYYCRYVHYAAVRRRLSSYGVDIWGQGTTVTVSSASTKGPSVFPLAPSSKSTSGGTAALGCLVKDYFPEPVTVSWNSGALTSGVHTFPAVLQSSGLYSLSSVVTVPSSSLGTQTYICNVNHKPSNTKVDKKVEPKSCDKTHTCPPCPAPEAAGGPSVFLFPPKPKDTLMISRTPEVTCVVVDVSHEDPEVKFNWYVDGVEVHNAKTKPREEQYASTYRVVSVLTVLHQDWLNGKEYKCKVSNKALPAPIEKTISKAKGQPREPQVYTLPPSRCELTKNQVSLSCAVKGFYPSDIAVEWESNGQPENNYKTTPPVLDSDGSFFLVSKLTVDKSRWQQGNVFSCSVMHEALHNHYTQKSLSLSPDYKDDDDK
chain: B1 chain
light: B1 light with P28S, P29L, A94G
notes: single-arm
B3 gave a Kd with soluble human CD3ε chain [1] of 3.25 nM.

B4: rCE115H-G1dh//-Hi-Kn010G3/L0000-k0 (antibody, human IgG1, kappa)
heavy: not shown
chain: B1 chain
light: B1 light with P28S, P29L, A94G
notes: single-arm
In turn, B4 registered a Kd with soluble human CD3ε chain [1] of 57.6 nM.

B5: TR01H077-E22Hh/none-Hi-Kn010G3/L0200-k0 (antibody, human IgG1, kappa, L234A L235A, N297A)
heavy: QVQLVESGGGLVQPGRSLRLSCAASGFTFSNAWMHWVRQAPGKGLEWVAQIKDKSNNYATYYAESVKGRFTISRADSKNSIYLQMNSLKTEDTAVYYCRYVHYAAAEMVRDDIWGQGTTVTVSSASTKGPSVFPLAPSSKSTSGGTAALGCLVKDYFPEPVTVSWNSGALTSGVHTFPAVLQSSGLYSLSSVVTVPSSSLGTQTYICNVNHKPSNTKVDKKVEPKSCDKTHTCPPCPAPEAAGGPSVFLFPPKPKDTLMISRTPEVTCVVVDVSHEDPEVKFNWYVDGVEVHNAKTKPREEQYASTYRVVSVLTVLHQDWLNGKEYKCKVSNKALPAPIEKTISKAKGQPREPQVYTLPPSRCELTKNQVSLSCAVKGFYPSDIAVEWESNGQPENNYKTTPPVLDSDGSFFLVSKLTVDKSRWQQGNVFSCSVMHEALHNHYTQKSLSLSPDYKDDDDK
chain: B1 chain
light: B1 light with S25P, P28S, A94G
notes: single-arm
B5 displayed a Kd in the assay with soluble human CD3ε chain [1] of 6.12 nM.

B6: TR01H067-E22Hh/none-Hi-Kn010G3/L0000-k0 (antibody, human IgG1, kappa, L234A L235A, N297A)
heavy: B1 heavy with V11L, G16R, A75D, I81L, G106S, I111A
chain: B1 chain
light: B1 light with P28S, P29L, A94G
notes: one-arm antibody (single Fab) with Fab-less hinge-Fc chain Hi-Kn010G3
Molecule B6 registered a Kd in the assay with soluble human CD3ε chain [2] of 71.5 nM.

B7: CE115HA179-G1dh//-Hi-Kn010G3/L0000-k0 (antibody, human IgG1, kappa)
heavy: not shown
chain: B1 chain
light: B1 light with P28S, P29L, A94G
notes: single-arm
B7 yielded a Kd with soluble human CD3ε chain [1] of 8.35 nM.

B8: TR01H009-E22Hh/none-Hi-Kn010G3/L0000-k0 (antibody, human IgG1, kappa, L234A L235A, N297A)
heavy: B1 heavy with V11L, G16R, D53A, Q56N, E64P, A104G, G106Y
chain: B1 chain
light: B1 light with P28S, P29L, A94G
notes: as for B6
As to B8, the Kd in the assay with soluble human CD3ε chain [2] was determined as 31.5 nM.

B9: CE115HA124-E22Hh//-Hi-Kn010G3/L0000-k0 (antibody, human IgG1, kappa, L234A L235A, N297A)
heavy: B1 heavy with G16R, D53A, K54L, Q56N, A75D, I81L, A104G, G106Y, I111A
chain: B1 chain
light: B1 light with P28S, P29L, A94G
notes: one-arm antibody (single Fab) with Fab-less hinge-Fc chain Hi-Kn010G3; label '//-Hi-Kn010G3' read as none-Hi-Kn010G3
As for B9, in the assay with soluble human CD3ε chain [2], binding was characterised by a dissociation constant (Kd) of 143 nM.

B10: CE115HA177-G1dh//-Hi-Kn010G3/L0000-k0 (antibody, human IgG1, kappa)
heavy: not shown
chain: B1 chain
light: B1 light with P28S, P29L, A94G
notes: single-arm
On to B10, for which the equilibrium dissociation constant (Kd) in the assay with soluble human CD3ε chain [1] is 35.5 nM.

B11: TR01H079-E22Hh/none-Hi-Kn010G3/L0000-k0 (antibody, human IgG1, kappa, L234A L235A, N297A)
heavy: B3 heavy with V106A, R107E, R108M, R109V, L110R, S111D
chain: B1 chain
light: B1 light with P28S, P29L, A94G
notes: single-arm
The molecule B11 returned a Kd with soluble human CD3ε chain [1] of 50.5 nM.

B12: TR01H008-E22Hh/none-Hi-Kn010G3/L0000-k0 (antibody, human IgG1, kappa, L234A L235A, N297A)
heavy: B1 heavy with V11L, G16R, D53G, Q56N, A104G, G106Y
chain: B1 chain
light: B1 light with P28S, P29L, A94G
notes: as for B6
Regarding B12, the Kd with soluble human CD3ε chain [2] came out at 42.2 nM.

B13: CE115HA178-G1dh//-Hi-Kn010G3/L0000-k0 (antibody, human IgG1, kappa)
heavy: not shown
chain: B1 chain
light: B1 light with P28S, P29L, A94G
notes: single-arm
B13 came in with a Kd with soluble human CD3ε chain [1] of 10.9 nM.

B14: TR01H084-E22Hh/none-Hi-Kn010G3/L0271-k0 (antibody, human IgG1, kappa, L234A L235A, N297A)
heavy: B1 heavy
chain: B1 chain
light: B1 light with N35Q, A94G
notes: single-arm
B14 returned a Kd in the assay with soluble human CD3ε chain [1] of 27.6 nM.

B15: TR01H004-E22Hh//-Hi-Kn010G3/L0000-k0 (antibody, human IgG1, kappa, L234A L235A, N297A)
heavy: B1 heavy with G16R, D53A, Q56N, A75D, I81L, Y100R, A104Y, A105Y, G106Y, I111A
chain: B1 chain
light: B1 light with P28S, P29L, A94G
notes: as for B9
Turning to B15, in the assay with soluble human CD3ε chain [2], the Kd was found to be 135 nM.

B16: TR01H010-E22Hh/none-Hi-Kn010G3/L0000-k0 (antibody, human IgG1, kappa, L234A L235A, N297A)
heavy: B1 heavy with V11L, G16R, D53A, Q56N, A104S, G106Y
chain: B1 chain
light: B1 light with P28S, P29L, A94G
notes: as for B6
Consider B16, for which binding with soluble human CD3ε chain [2] was characterised by a dissociation constant (Kd) of 37.3 nM.

B17: CE115HA180-G1dh//-Hi-Kn010G3/L0000-k0 (antibody, human IgG1, kappa)
heavy: not shown
chain: B1 chain
light: B1 light with P28S, P29L, A94G
notes: single-arm
B17 registered a Kd with soluble human CD3ε chain [1] of 16.8 nM.

B18: TR01H084-E22Hh/none-Hi-Kn010G3/L0272-k0 (antibody, human IgG1, kappa, L234A L235A, N297A)
heavy: B1 heavy
chain: B1 chain
light: B1 light with P29L, N35Q, A94G
notes: single-arm
As to B18, in the assay with soluble human CD3ε chain [1], the Kd was 31 nM.

B19: TR01H100-E22Hh/none-Hi-Kn010G3/L0011-k0 (antibody, human IgG1, kappa, L234A L235A, N297A)
heavy: B1 heavy with V11L, G16R, T60S, A75D, I81L, I111A
chain: B1 chain
light: B1 light with P29L, A94G
notes: single-arm
For B19, the affinity with soluble human CD3ε chain [1], expressed as Kd, was 62.5 nM.

B20: hCE115HA-E22Hh//-Hi-Kn010G3/L0000-k0 (antibody, human IgG1, kappa, L234A L235A, N297A)
heavy: B1 heavy with G16R, D53A, Q56N, A75D, I81L, A104G, G106Y, I111A
chain: B1 chain
light: B1 light with P28S, P29L, A94G
notes: single-arm
In the assay with soluble human CD3ε chain [1], B20 gave a Kd of 143 nM.

B21: TR01H084-E22Hh/none-Hi-Kn010G3/L0270-k0 (antibody, human IgG1, kappa, L234A L235A, N297A)
heavy: B1 heavy
chain: B1 chain
light: B1 light with P28S, P29L, N35Q, A94G
notes: single-arm
Turning to B21, binding with soluble human CD3ε chain [1] was characterised by a dissociation constant (Kd) of 27.6 nM.

B22: hCE115HA-G1dh//-Hi-Kn010G3/L0000-k0 (antibody, human IgG1, kappa)
heavy: not shown
chain: B1 chain
light: B1 light with P28S, P29L, A94G
notes: single-arm
In turn, B22 gave an equilibrium dissociation constant (Kd) with soluble human CD3ε chain [1] of 65 nM.
